Source: patent US12564623B2, “Methods and compositions for treating cancer” (The University of Chicago, priority 2017, dated 2026)
“Also recorded” adds a separate entry of the source.

Legend:
CD95 [1] = biological target: T1, CD95 (Homo sapiens, UniProt P25445); details: Strand et al., Oncogene, 2004; cited from earlier work
T1 sequence (P25445 26-335): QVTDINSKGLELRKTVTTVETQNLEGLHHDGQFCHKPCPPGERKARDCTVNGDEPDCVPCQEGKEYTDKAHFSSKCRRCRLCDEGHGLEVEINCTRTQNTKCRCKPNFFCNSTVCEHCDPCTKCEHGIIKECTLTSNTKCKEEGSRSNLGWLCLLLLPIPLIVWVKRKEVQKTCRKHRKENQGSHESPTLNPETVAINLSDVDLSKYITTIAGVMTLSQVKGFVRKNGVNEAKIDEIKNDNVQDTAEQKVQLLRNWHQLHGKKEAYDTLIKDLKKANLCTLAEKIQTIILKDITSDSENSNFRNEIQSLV

MDA-MB-231 cells = assay: Cancer cell killing, Calcein AM staining; type: cell-based, human
Procedure: Approach to identify the factor(s) mediating selective killing. A quantitative cancer cell killing assay was developed to track the bioactive factor(s). MDA-MB-231 cells were treated with various doses of PMN media and cell viability was assessed by Calcein AM live cells fluorescence staining. […] (FIG. 3B) PMN media was passed through a 0.22 μm filter, and protein concentration and killing activity on MDA-MB-231 cancer cells was measured in both pre- and post-filter solutions. […] ELANE and ECP levels in PMN media pre- and post-filtration were quantified by mass spectrometry (spectral counts).
To determine if ELANE and/or ECP were responsible, the inventors (1) immuno-depleted ELANE or ECP from PMN media; (2) treated cancer or normal cells with purified native ELANE or ECP from commercial sources. (FIG. 6A) ELANE or ECP were depleted from PMN media by immunoprecipitation; depletion was confirmed by western blotting. PMN media pre-depletion=Orig. and post-depletion=FT. Non-specific IgG was used as a control. (FIG. 6B) MDA-MB-231 cells or human monocyte-derived macrophages (HMDMs) were treated with purified native ELANE or ECP at various doses for 24h, and killing was assessed by Calcein AM staining. (FIG. 6C) MDA-MB-231 cells and HMDMs were treated with levels of ELANE (0.25 μg/mL) or ECP (0.05 μg/mL) that were present in the PMN media, alone or in combination for 24 hrs, and killing was examined by Calcein AM staining.
High doses of ECP or ELANE can kill cancer cells. The inventors sought to determine whether adding purified human ECP (Lee Biosolutions), human ELANE (Abcam), human DEFA1 (Abcam), human ANXA6 (R&D Systems) or human CASP3 (Abcam) individually could kill cancer cells without killing non-cancer cells. Increasing doses of each protein were added to MDA-MB-231 cells for 5h or human monocyte-derived macrophages (HMDMs) for 24 h and cell viability was determined by Calcein-AM.
ELANE and ECP synergize to selectively kill cancer cells. MDA-MB-231 and human monocyte-derived macrophages (HMDMs) were treated with levels of ELANE (0.25 μg/mL) or ECP (0.05 μg/mL) that were present in the PMN media, alone or in combination for 24 hrs. killing was examined by Calcein AM staining.
Combining chemotherapeutics and neutrophil conditioned media enhances the killing of human triple negative breast cancer cells. MDA-MB-231 cells were treated with neutrophil conditioned media (Neu-CM; 4 μg/mL), doxorubicin (DOX; 0.3 μM), or paclitaxel (PTX; 3 nM) for 4h, individually or in combination, and cell viability was assessed by Calcein-AM.
(§1) Other serine proteases cleave the C-terminal domain of CD95, and the ability to cleave the C-terminal domain is associated with cancer cell killing. (FIG. 12A) Full length recombinanat CD95 protein was incubated with various serine proteases (human ELANE (80 nM), PR3 (80 nM), CSTG (80 nM), PPE (80 nM), mouse ELANE (80 nM), rat ELANE (500 nM), GZMB (80 nM), or Trypsin (250 nM)), or other types of proteases (CTSC (80 nM); or MMP7 (80 nM), MMP9 (80 nM), CTSD (80 nM) not shown) at 37° C. for 2 hours. Degradation was assessed by SDS-PAGE followed by coomassie blue staining. (FIG. 12B) MDA-MB-231 cancer cells were incubated with various proteases for 24 hrs. Cell viability was assessed by Calcein AM staining.
(FIG. 13A) MDA-MB-231 cancer cells were treated with various doses of purified native ELANE or purified native porcine pancreatic elastase (PPE) for 6 h, and killing was assessed by Calcein AM staining. (FIG. 13B). Purified native ELANE or purified native PPE was incubated with different concentrations of alpha-1-anti-trypsin (A1AT) for 15 mins. Catalytic activity was measured using a chromogenic substrate assay. Cancer cell killing capability was determined by treating MDA-MB-231 cancer cells with ELANE or PPE in the presence or absence of A1AT for 6h, followed by Calcein AM staining. (FIG. 13C) Catalytic activity was measured using a chromogenic substrate assay. […]

[2] = biological target: alpha-1-anti-trypsin (A1AT) (Homo sapiens, UniProt P01009); assay: Inhibition of elastase activity and killing by A1AT or FBS; type: biochemical; details: 15 mins, killing 6 h
alpha-1-anti-trypsin (A1AT), sequence (P01009 25-418, species assumed): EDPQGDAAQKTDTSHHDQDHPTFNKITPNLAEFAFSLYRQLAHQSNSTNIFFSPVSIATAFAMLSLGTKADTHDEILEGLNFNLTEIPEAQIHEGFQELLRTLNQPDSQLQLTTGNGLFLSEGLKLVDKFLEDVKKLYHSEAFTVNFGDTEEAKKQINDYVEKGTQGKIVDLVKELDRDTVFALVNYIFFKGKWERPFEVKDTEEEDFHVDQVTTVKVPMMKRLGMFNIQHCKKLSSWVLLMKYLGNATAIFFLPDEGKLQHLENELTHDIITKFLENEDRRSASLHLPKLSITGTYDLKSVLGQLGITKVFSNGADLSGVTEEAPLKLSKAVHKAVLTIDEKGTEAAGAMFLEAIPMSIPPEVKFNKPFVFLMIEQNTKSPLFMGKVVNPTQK
Procedure: (FIG. 13A) MDA-MB-231 cancer cells were treated with various doses of purified native ELANE or purified native porcine pancreatic elastase (PPE) for 6 h, and killing was assessed by Calcein AM staining. (FIG. 13B). Purified native ELANE or purified native PPE was incubated with different concentrations of alpha-1-anti-trypsin (A1AT) for 15 mins. Catalytic activity was measured using a chromogenic substrate assay. Cancer cell killing capability was determined by treating MDA-MB-231 cancer cells with ELANE or PPE in the presence or absence of A1AT for 6h, followed by Calcein AM staining. (FIG. 13C) Catalytic activity was measured using a chromogenic substrate assay. Cancer cell killing capability was determined by treating MDA-MB-231 cancer cells with ELANE or PPE in the presence or absence of FBS for 6 h, followed by Calcein AM staining.
Elastase activity for purified native ELANE or purified native PPE at various dose were measured. It's corresponding killing ability was also tested on MDA-MB-231 cancer cells. Killing was assessed 6 hrs after treatment by Calcein AM staining. […] Killing was assessed 6 hrs after treatment by Calcein AM staining. […] Killing was assessed 6 hrs after treatment by Calcein AM staining.

CD95 [3] = biological target: T1, CD95; assay: Recombinant CD95 degradation, SDS-PAGE and coomassie blue; type: biochemical; parameters: Recombinant proteins (1 μg) corresponding to full length CD95 (FL-CD95); details: purified CD95
Procedure: ELANE lowers CD95 levels in cancer cells and reduced CD95 levels are associated with apoptosis. (FIG. 8A) Recombinant proteins (1 μg) corresponding to full length CD95 (FL-CD95), N-terminal domain of CD95 (amino acids 1-173; N-CD95), or C-terminal domain of CD95 (amino acids 157-320; C-CD95) were inbuated with ELANE (0.05 μg) or vehicle (Veh) for 2 hrs at 37° C. Degradation was assessed by SDS-PAGE followed by coomassie blue staining. […] (FIG. 8C) Cancer cells were treated with ELANE (50 nM) for 1 hr, fixed in 10% formalin, and stained with N- or C-terminal specific anti-CD95 antibodies (green). Hoechst 33342 solution was used for nuclear staining (blue). Images were taken under 40×.
ELANE selectively cleaves the C-terminal domain of CD95. The CD95 pathway is essential for the survival of a wide range of cancer cells, but largely dispensable for normal cell survival (Adachi et al., Nat. Genet., 1995; Karray et al., J. Immunol., 2004). CD95 function can be modulated by proteolysis (Strand et al., Oncogene, 2004). To test CD95 involvement in ELANE mediated cell killing ELANE (0.05 μg) was incubated with 1 μg recombinant human C-terminal (aa. 157-320) or N-terminal (aa. 1-173) CD95 for 2 hrs at 37° C. Degradation was assessed by SDS-PAGE followed by staining with coomassie blue. C-terminal domain cleavage. N-terminal domain cleavage. Cancer cells were treated with ELANE (50 nM) for 1 hr, fixed in 10% formalin, and stained with N- or C-terminal specific anti-CD95 antibodies. Hoechst 33342 solution was used for nuclear staining. Images were taken under 40×. […] Mel888 cancer cells were treated with ELANE (50 nM) for various times, and CD95 degradation was assessed by western blot analysis with a C-terminal specific anti-CD95 antibody.
as §1

MMP7: protease previously shown to cleave the extracellular N-terminal domain of CD95
cleavage of CD95 (CD95 [1]): cleave the extracellular N-terminal domain of CD95

porcine pancreatic elastase [PPE]
cancer cell killing by proteases (MDA-MB-231 cells): killed cancer cells
toxicity to cancer cells, ELANE versus PPE (MDA-MB-231 cells; various doses, 6 h): equally toxic to cancer cells
susceptibility to inhibition by serine protease inhibitors [2]: more resistant to inhibition by serine protease inhibitors; also recorded: less susceptibility to alpha 1 anti-trypsin (A1AT) or serum blocking
cleavage of purified CD95 (CD95 [3]): cleaved purified CD95 with an identical degradation pattern to ELANE
